# Patent US20230212319A1, “NOVEL ANTIGEN BINDING DOMAINS AND SYNTHETIC ANTIGEN RECEPTORS INCORPORATING THE SAME” (University of Southern California, priority 2020, published 2023)
# Legend:
# Type in all cases: cell-based
# LNCaP cells = test: JNG assay, co-culture with LNCaP cells; details: for NFAT-GFP ASSAY: LNCaP: co-culture with LNCaP
# Description: Cellular supernatant is collected and assayed for the induction of cytokines (e.g., IL2).
# JNG (Jurkat cells expressing EGFP under an NFAT promoter) were infected with lentiviral vectors encoding different single chain and multi-chain SARs by spinfection in the presence of 8 µg/ml of Polybrene® (Sigma, Catalog no. H9268). The Jurkat-NFAT-GFP cells are engineered in such a way that the IL-2 promoter, which carries NFAT binding sites, is cloned upstream of the GFP gene. These cells have been used to study signaling via TCR and CAR. The different SARs were stably expressed in Jurkat NFAT-GFP cells by lentiviral mediated gene transfer, followed by selection with puromycin or blasticidin. No drug selection was used in case the construct lacked an antibiotic resistance gene. The SAR-expressing Jurkat-NFAT-GFP cells were cocultured with the target cells at E:T ratio of approximately 1:2 for approximately 4 hours to 18 hours. When the interaction between SIRs and their target antigen results in activation of the NFAT pathway, GFP expression is induced. […] GFP expression was monitored by FACS analysis. The Jurkat-NFAT-GFP (parental) cells were used as control. The structure of different constructs can be determined based on their names. For example, the construct CD8SP-CD19-hu-mROO5-1-vL-[hTCRa-C SDVP]-F-F2A-Spe-IgHSP-Apa-CD20-vHH-2HCD25-G4S-CDl9-hu-mROO5-1-vH-Mlu-[hTCRb-KACIAH]-F-P2A-PAC has the following modules from 5′ to 3′ direction: a CD8 signal peptide (CD8SP), the CD19 targeting hu-mROO5-1 vL fragment (CD19-hu-mROO5-1), Xho1 cloning site, human TCRa constant chain containing CSDVP mutations (hTCRa-CSDVP), Furine cleavage site (F), F2A ribosomal skip sequence (F2A), SpeI site, human IgH signal peptide (IgHSP), Apa I restriction enzyme site, camelid CD20-2HCD25-VHH module targeting CD20, BamHI restriction enzyme site, Glycinex4-serine linker (G4S), BstI restriction enzyme site, CD19-hu-mROO5-1-vH fragment targeting CD19, Mlu I restriction enzyme site, human TCRb constant chain containing KACIAH mutations ([hTCRb-KACIAH]), Furine cleavage site (F), P2A ribosomal skip sequence and Puromycin resistance gene (PAC). The sequence of the other constructs in the table can be similarly determined from their names and by referring to the different Tables of this disclosure that provide the names and SEQ ID NO of the different modules. Alternatively, the composition and modular architecture of the different SAR constructs can be determined from their sequences by bioinformatics tools, including using nucleic acid and amino acids homology searches. A SAR is considered positive in the assay in case the SAR expressing Jurkat-NFAT-GFP cells show greater % GFP positive cells when cultured with the target cell line as compared to parental Jurkat-NFAT-GFP cells. The signs +/-, +, 2+ etc. after the name of the cell lines indicate the relative degree of positivity on the Jurkat-NFAT-GFP assay as measured by the % GFP positive cells after culture of the SAR expressing Jurkat-NFAT-GFP cells with that cell line above the % GFP cells observed in parental Jurkat NFAT-GFP cells serving as controls. In general, the number +/-, +, 2+, 3+, 4+, 5+ refer to approximately 5%, 10%, 20%, 30%, 40% and 50% GFP positive cells. The % of GFP induction in the above assay is dependent not only the relative strength of the SAR but also, among other factors, on the relative level of expression of the SAR in the JNG cells and the relative level of expression of the target antigen in the target cell line. To control for the difference in gene transduction efficiency of the different SAR constructs, the experiment was conducted with JNG cells transduced with SAR constructs co-expressing a drug resistance gene (e.g., puromycin or PAC) followed by drug selection to generate a stable population of SAR-expressing cells. […]
# RAJI cells = test: JNG assay, co-culture with RAJI cells; details: JNG cells expressing construct, co-culture with Raji
# In short: (§1)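 Jurkat NFAT-GFP (JNG) cells stably transduced with SARs by lentivirus, with drug selection where the construct carried a resistance gene, then co-cultured with target cells at E:T ~1:2 for ~4–18 h. % GFP-positive cells measured by FACS against parental JNG; +/- to 5+ correspond to ~5–50% GFP-positive.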
# RS;411 = test: JNG assay, co-culture with RS;411 cells; details: co-culture with RS411
# In short: as §1
# RAJI-CD19-KO cells = test: JNG assay, co-culture with RAJI-CD19-KO cells; details: co-culture with Raji-CD19-KO
# In short: as §1
# L363 cells = test: JNG assay, co-culture with L363 cells; details: co-culture with L363
# In short: as §1
# Nalm6 cells = test: JNG assay, co-culture with Nalm6 cells; details: co-culture with Nalm6
# In short: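 NFAT-driven GFP in stably SAR-transduced Jurkat cells after coculture (E:T ~1:2; ~4–18 h), measured by flow cytometry and expressed as % GFP+ cells over parental Jurkat-NFAT-GFP cells.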
molecule,measurement,setting,value
22042 (protein) MALPVTALLLPLALLLHAARPQLQLQESGPGLVKPSETLSLTCTVSGDSISSGDYYWGWIRQPPGKGLEWIGHIYYSGVTYYNPSLKSRVTISVDTSRNQFSLKLSSVTAADTAVYYCTREDSSNWRSRGQGTLVTVSSLEGSADCGFTSESYQQGVLSATILYEILLGKATLYAVLVSALVLMAMVKRKDSRGRAKRSGSGATNFSLLKQAGDVEENPGPTSMDWIWRILFLVGAATGAHSFEVQLVESGGGVVQPGRSLRLSCAASGFSFSGYGMHWVRQAPGKGLEWVAYISYDGSNKYYADSVKGRFTISRDNSKNTLYLQMNSLRAEDTAVYYCAKDPAWGLRLGESSSYDFDIWGQGTMVTVSSTRDKTHTCPPCPAIPEDTFFPSPESSCDVKLVEKSFETDTNLNFQNLSVIGFRILLLKVAGFNLLMTLRLWSSRAKRSGSGVKQTLNFDLLKLAGDVESNPGPSRGHMTEYKPTVRLATRDDVPRAVRTLAAAFADYPATRHTVDPDRHIERVTELQELFLTRVGLDIGKVWVADDGAAVAVWTTPESVEAGAVFAEIGPRMAELSGSRLAAQQQMEGLLAPHRPKEPAWFLATVGVSPDHQGKGLGSAVVLPGVEAAERAGVPAFLETSAPRNLPFYERLGFTVTADVEVPEGPRTWCMTRKPGA,NFAT-GFP ASSAY: LNCaP,LNCaP cells,"+/- (refer to approximately 5%, 10%, 20%, 30%, 40% and 50% GFP positive cells)"
22044 (protein) MALPVTALLLPLALLLHAARPQLQLQESGPGLVKPSETLSLTCTVSGDSISSGDYYWGWIRQPPGKGLEWIGHIYYSGVTYYNPSLKSRVTISVDTSRNQFSLKLSSVTAADTAVYYCTREDSSNWRSRGQGTLVTVSSLEGSMDPKDNCSKDANDTLLLQLTNTSAYYMYLLLLLKSVVYFAIITCCLLRRTAFCCNGEKSRAKRSGSGATNFSLLKQAGDVEENPGPTSMDWIWRILFLVGAATGAHSFEVQLVESGGGVVQPGRSLRLSCAASGFSFSGYGMHWVRQAPGKGLEWVAYISYDGSNKYYADSVKGRFTISRDNSKNTLYLQMNSLRAEDTAVYYCAKDPAWGLRLGESSSYDFDIWGQGTMVTVSSTRDKTHTCPPCPAIPEDTFFPSPESSCDVKLVEKSFETDTNLNFQNLSVIGFRILLLKVAGFNLLMTLRLWSSRAKRSGSGVKQTLNFDLLKLAGDVESNPGPSRGHMTEYKPTVRLATRDDVPRAVRTLAAAFADYPATRHTVDPDRHIERVTELQELFLTRVGLDIGKVWVADDGAAVAVWTTPESVEAGAVFAEIGPRMAELSGSRLAAQQQMEGLLAPHRPKEPAWFLATVGVSPDHQGKGLGSAVVLPGVEAAERAGVPAFLETSAPRNLPFYERLGFTVTADVEVPEGPRTWCMTRKPGA,NFAT-GFP ASSAY: LNCaP,LNCaP cells,"+/- (refer to approximately 5%, 10%, 20%, 30%, 40% and 50% GFP positive cells)"
22140 (protein) MALPVTALLLPLALLLHAARPACEVQLLESGGGLIQPGGSLRLSCAASGFTFSSHAMTWVRQAPGKGLEWVSAISGSGDYTHYADSVKGRFTISRDNSKNTVYLQMNSLRAEDSAVYYCAKDEDGGSLLGHRGQGTLVTVSSGTGGGGSGGGGSGGGGSEFDIQMTQSPSSLSASVGDRVTITCKASDHINNWLAWYQQKPGQAPKLLIYGATTLETGVPSRFSGSGSGTDYTLTISSLQPEDFATYYCQQSWNTPWTFGQGTKLEIKRLEGQPKANPTVTLFPPSSEELQANKATLVCLISDFYPGAVTVAWKADGSPVKAGVETTKPSKQSNNKYAASSYLSLTPEQWKSHRSYSCQVTHEGSTVEKTVAPTECSGRADCGFTSESYQQGVLSATILYEILLGKATLYAVLVSALVLMAMVKRKDSRGRAKRSGSGATNFSLLKQAGDVEENPGPTSATMDWIWRILFLVGAATGAHSGPQVQLQESGGGLAQAGGSLRLSCAASGRTFSMGWFRQAPGKEREFVAAITYSGGSPYYASSVRGRFTISRDNAKNTVYLQMNSLKPEDTAVYYCAANPTYGSDWNAENWGQGTQVTVSSGSGGGGSGGGGSGGGGSFEQVQLQQPGAELVKPGASVKMSCKASGYAFSSYWINWMKQKPGQGLEWIGQIYPGDGDTNYNGKFKGRATLTADTSSSTAYMQLSSLTSEDSAVYFCARSITTVVGCAMDYWGQGTSVTVSSTRASTKGPSVFPLAPSSKSTSGGTAALGCLVKDYFPEPVTVSWNSGALTSGVHTFPAVLQSSGLYSLSSVVTVPSSSLGTQTYICNVNHKPSNTKVDKRVEPKSCIPEDTFFPSPESSCDVKLVEKSFETDTNLNFQNLSVIGFRILLLKVAGFNLLMTLRLWSSRAKRSGSGVKQTLNFDLLKLAGDVESNPGPSRGHMTEYKPTVRLATRDDVPRAVRTLAAAFADYPATRHTVDPDRHIERVTELQELFLTRVGLDIGKVWVADDGAAVAVWTTPESVEAGAVFAEIGPRMAELSGSRLAAQQQMEGLLAPHRPKEPAWFLATVGVSPDHQGKGLGSAVVLPGVEAAERAGVPAFLETSAPRNLPFYERLGFTVTADVEVPEGPRTWCMTRKPGA,NFAT-GFP ASSAY: Raji,RAJI cells,"5+ (refer to approximately 5%, 10%, 20%, 30%, 40% and 50% GFP positive cells)"
same,NFAT-GFP ASSAY: RS411,RS;411,"4+ (refer to approximately 5%, 10%, 20%, 30%, 40% and 50% GFP positive cells)"
same,NFAT-GFP ASSAY: Raji-CD19-KO,RAJI-CD19-KO cells,"4+ (refer to approximately 5%, 10%, 20%, 30%, 40% and 50% GFP positive cells)"
same,NFAT-GFP ASSAY: L363,L363 cells,"2+ (refer to approximately 5%, 10%, 20%, 30%, 40% and 50% GFP positive cells)"
same,NFAT-GFP ASSAY: Nalm6,Nalm6 cells,"5+ (refer to approximately 5%, 10%, 20%, 30%, 40% and 50% GFP positive cells)"
SEQ ID NO: 22289: NKG2D-YA fused directly to TCRb constant chain without an Ig linker (protein) MALPVTALLLPLALLLHAARPACLFNQEVQIPLTESYCGPCPKNWICYKNNCYQFFDESKNWYESQASCMSQNASLLKVYSKEDQDLLKLVKSAHWMGLVHIPTNGSWQWEDGSILSPNLLTIIEMQKGDCALYASSFKGYIENCSTPNTYICMQRTVLEDLKNVFPPEVAVFEPSEAEISHTQKATLVCLATGFYPDHVELSWWVNGKEVHSGVCTDPQPLKEQPALNDSRYCLSSRLRVSATFWQNPRNHFRCQVQFYGLSENDEWTQDRAKPVTQIVSAEAWGRADCGFTSESYQQGVLSATILYEILLGKATLYAVLVSALVLMAMVKRKDSRGRAKRSGSGATNFSLLKQAGDVEENPGPTSMDWIWRILFLVGAATGAHSFEDLFNQEVQIPLTESYCGPCPKNWICYKNNCYQFFDESKNWYESQASCMSQNASLLKVYSKEDQDLLKLVKSAHWMGLVHIPTNGSWQWEDGSILSPNLLTIIEMQKGDCALYASSFKGFIENCSTPNTYICMQRTVTRIQNPDPAVYQLRDSKSSDKSVCLFTDFDSQTNVSQSKDSDVYITDKCVLDMRSMDFKSNSAVAWSNKSDFACANAFNNSIIPEDTFFPSPESSCDVKLVEKSFETDTNLNFQNLSVIGFRILLLKVAGFNLLMTLRLWSSRAKRSGSGVKQTLNFDLLKLAGDVESNPGPSRGHMTEYKPTVRLATRDDVPRAVRTLAAAFADYPATRHTVDPDRHIERVTELQELFLTRVGLDIGKVWVADDGAAVAVWTTPESVEAGAVFAEIGPRMAELSGSRLAAQQQMEGLLAPHRPKEPAWFLATVGVSPDHQGKGLGSAVVLPGVEAAERAGVPAFLETSAPRNLPFYERLGFTVTADVEVPEGPRTWCMTRKPGA,GFP induction,"LNCaP cells; LNCaP cells, only in the presence of SAR-adaptor PSMA-USC76-chVH-G4S-ULBP2-S3 (SEQ ID NO: 23114)",failed to show GFP induction
